From publication PMC9932102, “SVEP1 is an endogenous ligand for the orphan receptor PEAR1” (Nature Communications, 2023)

Target: T1, biotinylated SVEP1 (mouse, UniProt A2AVA0 18-3567, biotin on the biotinylation domain (by BirA))
T1 construct: SVEP1, mouse Svep1 cDNA; biotinylation domain inserted in the C-terminus region upstream of the Myc tag; Same Svep1 construct as m1 with the biotinylation domain added; source: 293F cells, co-transfected with secreted BirA and supplemented with biotin, purified (Nuvia IMAC, Superose 6)
T1 sequence (A2AVA0 18-3567): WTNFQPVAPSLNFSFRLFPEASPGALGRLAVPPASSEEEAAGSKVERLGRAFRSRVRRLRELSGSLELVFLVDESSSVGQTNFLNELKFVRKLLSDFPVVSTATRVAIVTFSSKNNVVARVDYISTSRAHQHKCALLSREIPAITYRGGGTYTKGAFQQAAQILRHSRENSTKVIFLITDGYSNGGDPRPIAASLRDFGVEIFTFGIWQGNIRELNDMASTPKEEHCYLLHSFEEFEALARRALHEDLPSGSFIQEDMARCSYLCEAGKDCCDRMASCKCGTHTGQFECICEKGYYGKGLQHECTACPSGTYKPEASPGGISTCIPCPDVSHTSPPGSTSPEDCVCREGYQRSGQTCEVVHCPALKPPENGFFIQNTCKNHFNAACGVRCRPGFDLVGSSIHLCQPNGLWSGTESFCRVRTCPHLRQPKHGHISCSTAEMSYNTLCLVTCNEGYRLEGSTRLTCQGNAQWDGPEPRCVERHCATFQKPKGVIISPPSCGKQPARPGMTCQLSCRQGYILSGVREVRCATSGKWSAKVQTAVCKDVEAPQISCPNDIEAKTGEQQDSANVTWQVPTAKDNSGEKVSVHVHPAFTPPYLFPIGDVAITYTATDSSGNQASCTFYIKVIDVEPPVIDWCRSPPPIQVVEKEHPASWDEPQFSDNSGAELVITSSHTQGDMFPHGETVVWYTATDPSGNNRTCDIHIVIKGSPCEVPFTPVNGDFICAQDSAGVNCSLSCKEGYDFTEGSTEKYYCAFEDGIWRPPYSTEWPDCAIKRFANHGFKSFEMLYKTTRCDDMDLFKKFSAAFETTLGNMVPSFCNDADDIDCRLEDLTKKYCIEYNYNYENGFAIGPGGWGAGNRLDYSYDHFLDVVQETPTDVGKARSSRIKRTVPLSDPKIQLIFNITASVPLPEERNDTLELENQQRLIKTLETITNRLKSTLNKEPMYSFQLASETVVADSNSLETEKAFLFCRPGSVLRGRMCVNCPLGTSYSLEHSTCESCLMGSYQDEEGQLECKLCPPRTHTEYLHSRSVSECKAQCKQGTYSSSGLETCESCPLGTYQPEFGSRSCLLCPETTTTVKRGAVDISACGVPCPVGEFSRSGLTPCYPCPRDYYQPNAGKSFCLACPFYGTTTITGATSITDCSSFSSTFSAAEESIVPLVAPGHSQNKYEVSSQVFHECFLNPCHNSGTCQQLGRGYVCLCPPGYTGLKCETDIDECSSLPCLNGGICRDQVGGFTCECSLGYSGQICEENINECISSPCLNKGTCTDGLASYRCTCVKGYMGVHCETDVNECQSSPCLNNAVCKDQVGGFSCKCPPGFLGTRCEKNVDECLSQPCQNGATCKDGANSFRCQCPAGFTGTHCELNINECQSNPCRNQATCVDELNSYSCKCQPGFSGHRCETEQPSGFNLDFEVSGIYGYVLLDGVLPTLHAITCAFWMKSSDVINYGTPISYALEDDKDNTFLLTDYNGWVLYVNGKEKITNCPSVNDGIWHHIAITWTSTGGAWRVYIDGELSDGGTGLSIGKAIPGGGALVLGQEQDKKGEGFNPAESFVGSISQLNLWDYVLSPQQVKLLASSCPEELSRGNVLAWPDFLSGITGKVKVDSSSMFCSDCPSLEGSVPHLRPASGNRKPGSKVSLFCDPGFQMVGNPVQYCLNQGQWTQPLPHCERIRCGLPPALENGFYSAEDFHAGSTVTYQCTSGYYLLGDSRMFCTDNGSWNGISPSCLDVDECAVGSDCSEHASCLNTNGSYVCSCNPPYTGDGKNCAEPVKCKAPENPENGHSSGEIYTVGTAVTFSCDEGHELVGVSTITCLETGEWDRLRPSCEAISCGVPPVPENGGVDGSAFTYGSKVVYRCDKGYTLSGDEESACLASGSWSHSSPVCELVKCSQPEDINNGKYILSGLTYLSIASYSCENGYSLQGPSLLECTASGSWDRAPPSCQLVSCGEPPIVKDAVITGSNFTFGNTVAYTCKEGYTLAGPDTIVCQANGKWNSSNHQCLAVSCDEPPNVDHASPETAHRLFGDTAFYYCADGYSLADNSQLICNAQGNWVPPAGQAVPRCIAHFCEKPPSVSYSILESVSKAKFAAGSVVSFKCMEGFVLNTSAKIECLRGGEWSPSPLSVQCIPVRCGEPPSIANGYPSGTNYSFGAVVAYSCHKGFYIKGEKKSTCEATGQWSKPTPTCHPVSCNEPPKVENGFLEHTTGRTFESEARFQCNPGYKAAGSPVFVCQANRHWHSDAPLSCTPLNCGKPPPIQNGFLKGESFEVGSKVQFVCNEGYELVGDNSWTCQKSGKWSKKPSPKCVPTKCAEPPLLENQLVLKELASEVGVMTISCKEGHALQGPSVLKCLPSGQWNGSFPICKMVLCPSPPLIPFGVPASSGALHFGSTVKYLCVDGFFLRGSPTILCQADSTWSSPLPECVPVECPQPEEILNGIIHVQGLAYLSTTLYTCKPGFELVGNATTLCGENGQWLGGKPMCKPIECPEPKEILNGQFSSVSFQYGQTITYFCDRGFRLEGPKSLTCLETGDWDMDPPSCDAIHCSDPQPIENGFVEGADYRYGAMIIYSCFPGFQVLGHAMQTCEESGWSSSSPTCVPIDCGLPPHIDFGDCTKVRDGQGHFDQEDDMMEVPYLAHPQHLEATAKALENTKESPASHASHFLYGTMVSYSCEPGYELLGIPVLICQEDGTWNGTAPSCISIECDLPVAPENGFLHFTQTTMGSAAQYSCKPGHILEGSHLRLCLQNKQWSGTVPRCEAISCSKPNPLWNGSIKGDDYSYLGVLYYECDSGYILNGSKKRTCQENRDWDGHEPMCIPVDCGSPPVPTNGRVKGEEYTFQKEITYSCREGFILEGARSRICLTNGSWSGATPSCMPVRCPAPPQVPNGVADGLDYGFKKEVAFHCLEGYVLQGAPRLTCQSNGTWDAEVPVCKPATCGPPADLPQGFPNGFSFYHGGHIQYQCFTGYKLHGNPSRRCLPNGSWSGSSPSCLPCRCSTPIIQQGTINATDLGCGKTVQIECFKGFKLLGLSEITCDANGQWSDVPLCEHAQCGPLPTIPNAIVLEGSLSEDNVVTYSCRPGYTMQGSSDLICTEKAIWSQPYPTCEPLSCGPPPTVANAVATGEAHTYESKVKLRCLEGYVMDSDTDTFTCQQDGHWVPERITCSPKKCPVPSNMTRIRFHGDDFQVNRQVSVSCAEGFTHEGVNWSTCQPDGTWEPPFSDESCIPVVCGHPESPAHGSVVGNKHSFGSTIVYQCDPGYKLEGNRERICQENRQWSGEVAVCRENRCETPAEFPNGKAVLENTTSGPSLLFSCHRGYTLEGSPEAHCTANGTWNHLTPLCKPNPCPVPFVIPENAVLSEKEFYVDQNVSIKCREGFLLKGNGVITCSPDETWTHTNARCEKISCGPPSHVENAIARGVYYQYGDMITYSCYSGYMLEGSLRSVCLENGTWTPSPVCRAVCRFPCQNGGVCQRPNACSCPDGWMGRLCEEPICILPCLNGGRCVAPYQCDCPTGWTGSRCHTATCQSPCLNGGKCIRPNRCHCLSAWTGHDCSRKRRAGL
Assay: BLI; biotinylated SVEP1 loaded on Octet SA biosensors (20 min, about 0.7 nm shift), quenched with biocytin; PEAR1 or PEAR1 D343N 10-90 nM as analyte; 0.01% Tween 20 in calcium-containing DPBS; 15 min association, 15 min dissociation; global 1:1 fit
Conditions: both partners purified

Kd [nM]	Binder
0.708 ± 0.003	PEAR1 (analyte of the BLI on biotinylated SVEP1) (receptor) LNPSDPNTCSFWESFTTTTKESHSRPFSLLPSEPCERPWEGPHTCPQPTVVYRTVYRQVVKTDHRQRLQCCHGFYESRGFCVPLCAQECVHGRCVAPNQCQCVPGWRGDDCSSECAPGMWGPQCDKPCSCGNNSSCDPKSGVCSCPSGLQPPNCLQPCTPGYYGPACQFRCQCHGAPCDPQTGACFCPAERTGPSCDVSCSQGTSGFFCPSTHSCQNGGVFQTPQGSCSCPPGWMGTICSLPCPEGFHGPNCSQECRCHNGGLCDRFTGQCRCAPGYTGDRCREECPVGRFGQDCAETCDCAPDARCFPANGACLCEHGFTGDRCTDRLCPDGFYGLSCQAPCTCDREHSLSCHPMNGECSCLPGWAGLHCNESCPQDTHGPGCQEHCLCLHGGVCQATSGLCQCAPGYTGPHCASLCPPDTYGVNCSARCSCENAIACSPIDGECVCKEGWQRGNCSVPCPPGTWGFSCNASCQCAHEAVCSPQTGACTCTPGWHGAHCQLPCPKGQFGEGCASRCDCDHSDGCDPVHGRCQCQAGWMGARCHLSCPEGLWGVNCSNTCTCKNGGTCLPENGNCVCAPGFRGPSCQRSCQPGRYGKRCVPCKCANHSFCHPSNGTCYCLAGWTGPDCSQPCPPGHWGENCAQTCQCHHGGTCHPQDGSCICPLGWTGHHCLEGCPLGTFGANCSQPCQCGPGEKCHPETGACVCPPGHSGAPCRIGIQEPFTVMPTTPVAYNSL
1.76 ± 0.006	PEAR1 D343N (receptor, human, UniProt Q5VY43 21-755, looked up, PEAR1 with the natural human missense variant p.D343N (rs147639000) in an EGF-like domain of the ectodomain; the construct is not described; as a soluble analyte it is probably an ectodomain (surmise); also called PEAR1 p.D343N; rs147639000) LNPSDPNTCSFWESFTTTTKESHSRPFSLLPSEPCERPWEGPHTCPQPTVVYRTVYRQVVKTDHRQRLQCCHGFYESRGFCVPLCAQECVHGRCVAPNQCQCVPGWRGDDCSSECAPGMWGPQCDKPCSCGNNSSCDPKSGVCSCPSGLQPPNCLQPCTPGYYGPACQFRCQCHGAPCDPQTGACFCPAERTGPSCDVSCSQGTSGFFCPSTHSCQNGGVFQTPQGSCSCPPGWMGTICSLPCPEGFHGPNCSQECRCHNGGLCDRFTGQCRCAPGYTGDRCREECPVGRFGQDCAETCDCAPDARCFPANGACLCEHGFTGNRCTDRLCPDGFYGLSCQAPCTCDREHSLSCHPMNGECSCLPGWAGLHCNESCPQDTHGPGCQEHCLCLHGGVCQATSGLCQCAPGYTGPHCASLCPPDTYGVNCSARCSCENAIACSPIDGECVCKEGWQRGNCSVPCPPGTWGFSCNASCQCAHEAVCSPQTGACTCTPGWHGAHCQLPCPKGQFGEGCASRCDCDHSDGCDPVHGRCQCQAGWMGARCHLSCPEGLWGVNCSNTCTCKNGGTCLPENGNCVCAPGFRGPSCQRSCQPGRYGKRCVPCKCANHSFCHPSNGTCYCLAGWTGPDCSQPCPPGHWGENCAQTCQCHHGGTCHPQDGSCICPLGWTGHHCLEGCPLGTFGANCSQPCQCGPGEKCHPETGACVCPPGHSGAPCRIGIQEPFTVMPTTPVAYNSL
